Experimental data reported in patent US10766952B2, “Methods for reducing migraine frequency in a subject in need thereof” (Beth Israel Deaconess Medical Center, Inc., priority 2017, dated 2020).

T1: human α-CGRP (Homo sapiens, UniProt P06881)
T1 construct: 1-37 (WT); purchased; host or cells: synthetic peptide
T1 sequence (P06881 83-119 limits assumed): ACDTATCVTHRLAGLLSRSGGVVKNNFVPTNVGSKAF

T2: rat α-CGRP (Rattus norvegicus, UniProt P01256)
T2 construct: rat α (1-37); host or cells: synthetic peptide
T2 sequence (P01256 83-119 limits assumed): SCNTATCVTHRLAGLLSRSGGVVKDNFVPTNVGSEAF


Experiments:
human α-CGRP = biological target: T1, human α-CGRP; assay: Biacore affinity of antibody G1 Fab and variants to human α-CGRP; format: binding; details: 37° C., Fab, screening mode unless underlined
Experimental: (§1) Biacore assay for affinity determination. […] All Biacore assays were conducted in HBS-EP running buffer (10 mM HEPES pH 7.4, 150 mM NaCl, 3 mM EDTA, 0.005% v/v polysorbate P20). CGRP surfaces were prepared by diluting the N-biotinylated CGRP to a concentration of less than 0.001 mg/mL into HBS-EP buffer and injecting it across the SA sensor chip using variable contact times. Low capacity surfaces, corresponding to capture levels <50 response units (RU) were used for high-resolution kinetic studies, whereas high capacity surfaces (about 800 RU of captured CGRP) were used for concentration studies, screening, and solution affinity determinations. […] Samples were typically injected for lminute at 100 μL/min and dissociation times of at least 10 minutes were allowed. After each binding cycle, surfaces were regenerated with 25 mM NaOH in 25% v/v ethanol, which was tolerated over hundreds of cycles. An entire titration series (typically generated in duplicate) was fit globally to a 1:1 Langmuir binding model using the BlAevaluation program. This returned a unique pair of association and dissociation kinetic rate constants (respectively, kon and koff) for each binding interaction, whose ratio gave the equilibrium dissociation constant (KD=koff/[…]).
(§2) High-resolution analysis of binding interactions with extremely slow offrates. […] The protocol described above was used with the following modifications. The association rate constant (kon) was determined by injecting a 2-fold titration series (in duplicate) spanning 550 nM-1 nM for 30 seconds at 100 μL/min and allowing only a 30 second dissociation phase. The dissociation rate constant (koff) was determined by injecting three concentrations (high, medium, and low) of the same titration series in duplicate for 30 seconds and allowing a 2-hour dissociation phase. The affinity (KD) of each interaction was obtained by combining the kon and koff values obtained in both types of experiments, as shown in Table 4.
(§3) The binding affinities of Fab fragments were determined by Biacore by flowing them across CGRPs on a SA chip.

rat α-CGRP = biological target: T2, rat α-CGRP; assay: Biacore affinity of antibody G1 Fab and variants to rat α-CGRP; format: binding; details: 37° C., Fab, screening mode unless underlined
Experimental: as §1, §2, §3

Row | α-human koff (human α-CGRP) | α-rat koff (rat α-CGRP) | Molecule
1 | 0.00049 s⁻¹ | 0.00429 s⁻¹ | M81: G1 variant: L1 R28N,T30S; L2 L56S; H2 E54K,A57N,S58E; HC-FW3 L99T,A100V (antibody, V domains shown) VH: EVQLVESGGGLVQPGGSLRLSCAASGFTFSNYWISWVRQAPGKGLEWVAEIRSKSDNEATHYAEAVKGRFTISRDNAKNSLYLQMNSLRAEDTAVYYCTVYFDYGLAIQNYWGQGTLVTVSS VL: EIVLTQSPATLSLSPGERATLSCKASKNVSTYVSWYQQKPGQAPRLLIYGASNRYSGIPARFSGSGSGTDFTLTISSLEPEDFAVYYCSQSYNYPYTFGQGTKLEIK
2 | 0.000142 s⁻¹ | 0.000695 s⁻¹ | M21: G1 variant: L1 R28W; HC-FW3 L99S (antibody, V domains shown) VH: EVQLVESGGGLVQPGGSLRLSCAASGFTFSNYWISWVRQAPGKGLEWVAEIRSESDASATHYAEAVKGRFTISRDNAKNSLYLQMNSLRAEDTAVYYCSAYFDYGLAIQNYWGQGTLVTVSS VL: EIVLTQSPATLSLSPGERATLSCKASKWVTTYVSWYQQKPGQAPRLLIYGASNRYLGIPARFSGSGSGTDFTLTISSLEPEDFAVYYCSQSYNYPYTFGQGTKLEIK
3 | 0.000136 s⁻¹ | 0.00144 s⁻¹ | M20: G1 variant: L1 R28W; HC-FW3 L99R,A100L (antibody, V domains shown) VH: EVQLVESGGGLVQPGGSLRLSCAASGFTFSNYWISWVRQAPGKGLEWVAEIRSESDASATHYAEAVKGRFTISRDNAKNSLYLQMNSLRAEDTAVYYCRLYFDYGLAIQNYWGQGTLVTVSS VL: EIVLTQSPATLSLSPGERATLSCKASKWVTTYVSWYQQKPGQAPRLLIYGASNRYLGIPARFSGSGSGTDFTLTISSLEPEDFAVYYCSQSYNYPYTFGQGTKLEIK
4 | 0.00014 s⁻¹ | 0.0014 s⁻¹ | M25: G1 variant: L1 R28N; HC-FW3 L99T,A100V (antibody, V domains shown) VH: EVQLVESGGGLVQPGGSLRLSCAASGFTFSNYWISWVRQAPGKGLEWVAEIRSESDASATHYAEAVKGRFTISRDNAKNSLYLQMNSLRAEDTAVYYCTVYFDYGLAIQNYWGQGTLVTVSS VL: EIVLTQSPATLSLSPGERATLSCKASKNVTTYVSWYQQKPGQAPRLLIYGASNRYLGIPARFSGSGSGTDFTLTISSLEPEDFAVYYCSQSYNYPYTFGQGTKLEIK
5 | 0.000148 s⁻¹ | 0.00104 s⁻¹ | M24: G1 variant: L1 R28L; HC-FW3 L99T,A100V (antibody, V domains shown) VH: EVQLVESGGGLVQPGGSLRLSCAASGFTFSNYWISWVRQAPGKGLEWVAEIRSESDASATHYAEAVKGRFTISRDNAKNSLYLQMNSLRAEDTAVYYCTVYFDYGLAIQNYWGQGTLVTVSS VL: EIVLTQSPATLSLSPGERATLSCKASKLVTTYVSWYQQKPGQAPRLLIYGASNRYLGIPARFSGSGSGTDFTLTISSLEPEDFAVYYCSQSYNYPYTFGQGTKLEIK
6 | 0.000933 s⁻¹ | No binding | M83: G1 variant: L1 R28N,T30V; L2 A51H,L56T; H2 E54K,A57N,S58M,H61F; HC-FW3 L991 (printed),A100V (antibody, V domains shown) VH: EVQLVESGGGLVQPGGSLRLSCAASGFTFSNYWISWVRQAPGKGLEWVAEIRSKSDNMATFYAEAVKGRFTISRDNAKNSLYLQMNSLRAEDTAVYYCTVYFDYGLAIQNYWGQGTLVTVSS VL: EIVLTQSPATLSLSPGERATLSCKASKNVVTYVSWYQQKPGQAPRLLIYGHSNRYTGIPARFSGSGSGTDFTLTISSLEPEDFAVYYCSQSYNYPYTFGQGTKLEIK
7 | 0.000148 s⁻¹ | 0.000924 s⁻¹ | M26: G1 variant: L1 R28N; H2 A57G; HC-FW3 L99T,A100V (antibody, V domains shown) VH: EVQLVESGGGLVQPGGSLRLSCAASGFTFSNYWISWVRQAPGKGLEWVAEIRSESDGSATHYAEAVKGRFTISRDNAKNSLYLQMNSLRAEDTAVYYCTVYFDYGLAIQNYWGQGTLVTVSS VL: EIVLTQSPATLSLSPGERATLSCKASKNVTTYVSWYQQKPGQAPRLLIYGASNRYLGIPARFSGSGSGTDFTLTISSLEPEDFAVYYCSQSYNYPYTFGQGTKLEIK
8 | 0.000116 s⁻¹ | 0.0011 s⁻¹ | M22: G1 variant: L1 R28W; HC-FW3 L99T (antibody, V domains shown) VH: EVQLVESGGGLVQPGGSLRLSCAASGFTFSNYWISWVRQAPGKGLEWVAEIRSESDASATHYAEAVKGRFTISRDNAKNSLYLQMNSLRAEDTAVYYCTAYFDYGLAIQNYWGQGTLVTVSS VL: EIVLTQSPATLSLSPGERATLSCKASKWVTTYVSWYQQKPGQAPRLLIYGASNRYLGIPARFSGSGSGTDFTLTISSLEPEDFAVYYCSQSYNYPYTFGQGTKLEIK
9 | 0.000877 s⁻¹ | 0.00699 s⁻¹ | M82: G1 variant: L1 R28N,T30V; L2 A51H,L56T; H2 A57N; HC-FW3 L991 (printed),A100V (antibody, V domains shown) VH: EVQLVESGGGLVQPGGSLRLSCAASGFTFSNYWISWVRQAPGKGLEWVAEIRSESDNSATHYAEAVKGRFTISRDNAKNSLYLQMNSLRAEDTAVYYCTVYFDYGLAIQNYWGQGTLVTVSS VL: EIVLTQSPATLSLSPGERATLSCKASKNVVTYVSWYQQKPGQAPRLLIYGHSNRYTGIPARFSGSGSGTDFTLTISSLEPEDFAVYYCSQSYNYPYTFGQGTKLEIK
10 | 0.00108 s⁻¹ | 0.0176 s⁻¹ | M84: G1 variant: L1 R28N,T30V; L2 A51H,L56T; H2 E54N,A57N; HC-FW3 L991 (printed),A100V (antibody, V domains shown) VH: EVQLVESGGGLVQPGGSLRLSCAASGFTFSNYWISWVRQAPGKGLEWVAEIRSNSDNSATHYAEAVKGRFTISRDNAKNSLYLQMNSLRAEDTAVYYCTVYFDYGLAIQNYWGQGTLVTVSS VL: EIVLTQSPATLSLSPGERATLSCKASKNVVTYVSWYQQKPGQAPRLLIYGHSNRYTGIPARFSGSGSGTDFTLTISSLEPEDFAVYYCSQSYNYPYTFGQGTKLEIK
11 | 0.000357 s⁻¹ | 0.00341 s⁻¹ | M27: G1 variant: L1 R28N,T30A; HC-FW3 L99T,A100V (antibody, V domains shown) VH: EVQLVESGGGLVQPGGSLRLSCAASGFTFSNYWISWVRQAPGKGLEWVAEIRSESDASATHYAEAVKGRFTISRDNAKNSLYLQMNSLRAEDTAVYYCTVYFDYGLAIQNYWGQGTLVTVSS VL: EIVLTQSPATLSLSPGERATLSCKASKNVATYVSWYQQKPGQAPRLLIYGASNRYLGIPARFSGSGSGTDFTLTISSLEPEDFAVYYCSQSYNYPYTFGQGTKLEIK
12 | 0.00013 s⁻¹ | 0.000799 s⁻¹ | M23: G1 variant: L1 R28G; HC-FW3 L99T,A100V (antibody, V domains shown) VH: EVQLVESGGGLVQPGGSLRLSCAASGFTFSNYWISWVRQAPGKGLEWVAEIRSESDASATHYAEAVKGRFTISRDNAKNSLYLQMNSLRAEDTAVYYCTVYFDYGLAIQNYWGQGTLVTVSS VL: EIVLTQSPATLSLSPGERATLSCKASKGVTTYVSWYQQKPGQAPRLLIYGASNRYLGIPARFSGSGSGTDFTLTISSLEPEDFAVYYCSQSYNYPYTFGQGTKLEIK
